Results published in US20220402995A1 (TOSOH, published 2022).

Target: T1, AAV2-EGFP (AAV vector of serotype 2 carrying an EGFP gene) (AAV2, UniProt P03135 1-735; P03135 1-598; P03135 1-533)
T1 construct: Genome-containing AAV2 particle; amounts counted as vector genomes (VG) by qPCR
Assay: column of AVR5eHC immobilised on gel; cell extract with AAV2-EGFP applied, elution at pH 2.5

T1 sequence (P03135 whole entry, chain 1 of 3, the tested form may be a part): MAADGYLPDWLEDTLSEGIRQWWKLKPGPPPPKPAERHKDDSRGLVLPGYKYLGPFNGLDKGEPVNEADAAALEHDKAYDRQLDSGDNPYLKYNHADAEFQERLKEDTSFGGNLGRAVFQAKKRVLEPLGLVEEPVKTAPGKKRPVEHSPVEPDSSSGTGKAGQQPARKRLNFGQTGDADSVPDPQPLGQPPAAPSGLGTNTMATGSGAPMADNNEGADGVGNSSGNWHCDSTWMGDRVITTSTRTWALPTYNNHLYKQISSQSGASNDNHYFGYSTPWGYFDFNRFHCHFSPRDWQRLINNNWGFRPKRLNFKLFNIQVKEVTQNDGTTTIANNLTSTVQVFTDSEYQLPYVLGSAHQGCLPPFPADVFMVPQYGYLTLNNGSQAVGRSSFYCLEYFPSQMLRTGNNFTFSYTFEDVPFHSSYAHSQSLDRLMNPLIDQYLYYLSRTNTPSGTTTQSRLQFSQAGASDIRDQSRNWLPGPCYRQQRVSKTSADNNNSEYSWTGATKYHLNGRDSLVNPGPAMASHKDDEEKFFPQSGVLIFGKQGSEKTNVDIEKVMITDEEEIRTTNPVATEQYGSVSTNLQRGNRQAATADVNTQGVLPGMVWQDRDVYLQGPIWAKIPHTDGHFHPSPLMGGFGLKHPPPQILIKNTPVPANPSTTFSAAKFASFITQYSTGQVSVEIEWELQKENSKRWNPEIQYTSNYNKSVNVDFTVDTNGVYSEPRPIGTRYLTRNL
T1 sequence (P03135 139-735, tags left off, chain 2 of 3): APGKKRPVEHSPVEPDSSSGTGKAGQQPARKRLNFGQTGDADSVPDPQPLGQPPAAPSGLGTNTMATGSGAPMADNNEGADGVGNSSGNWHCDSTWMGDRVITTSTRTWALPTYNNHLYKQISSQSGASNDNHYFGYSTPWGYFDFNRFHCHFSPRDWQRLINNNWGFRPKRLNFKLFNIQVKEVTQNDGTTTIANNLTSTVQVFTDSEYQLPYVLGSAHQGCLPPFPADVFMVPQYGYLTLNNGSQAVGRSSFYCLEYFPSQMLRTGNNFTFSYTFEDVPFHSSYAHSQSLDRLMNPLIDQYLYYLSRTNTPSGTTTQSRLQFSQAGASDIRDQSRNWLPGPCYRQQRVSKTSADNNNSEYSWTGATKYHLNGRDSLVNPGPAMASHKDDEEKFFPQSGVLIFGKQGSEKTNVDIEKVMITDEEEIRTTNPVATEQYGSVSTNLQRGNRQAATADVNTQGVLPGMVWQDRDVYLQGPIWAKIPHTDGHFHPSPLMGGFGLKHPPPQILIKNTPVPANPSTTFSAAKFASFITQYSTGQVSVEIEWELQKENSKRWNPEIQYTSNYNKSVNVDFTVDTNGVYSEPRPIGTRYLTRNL
T1 sequence (P03135 203-735, chain 3 of 3): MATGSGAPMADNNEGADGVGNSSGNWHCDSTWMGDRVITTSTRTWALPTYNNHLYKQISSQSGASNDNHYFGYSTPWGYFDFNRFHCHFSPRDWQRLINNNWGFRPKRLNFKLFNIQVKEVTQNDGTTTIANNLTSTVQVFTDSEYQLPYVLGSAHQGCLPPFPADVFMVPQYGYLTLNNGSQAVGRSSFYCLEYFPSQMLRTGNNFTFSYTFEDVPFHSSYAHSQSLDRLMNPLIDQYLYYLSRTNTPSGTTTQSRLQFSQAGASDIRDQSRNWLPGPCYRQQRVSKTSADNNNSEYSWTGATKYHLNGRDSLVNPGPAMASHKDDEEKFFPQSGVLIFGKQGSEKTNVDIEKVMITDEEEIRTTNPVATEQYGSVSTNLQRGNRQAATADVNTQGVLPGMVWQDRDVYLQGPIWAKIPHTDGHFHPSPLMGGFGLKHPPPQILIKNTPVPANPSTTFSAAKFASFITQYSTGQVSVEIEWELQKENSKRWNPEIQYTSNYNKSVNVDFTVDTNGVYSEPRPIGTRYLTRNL

B1: AVR5eHC (AVR5e with a cysteine tag for immobilization at the C-terminus) (receptor)
chain: MGSAGESVQITLPKNEVQLNAYVLQEPPKGETCTYDWQLITHPRDYSGEMEGKHSQILKLSKLTPGLYEFKVIVEGQNAHSEGYVNVTVEPEPRKNRPPIAIVSPQFQEISLPTTSTVIDGSQSTDDDKIVQYHWEELKGPLREEKISEDTAILKLSKLVPGNYTFRLTVVDSDGATDSTTANLTVNKAVDHHHHHHCRNDTCG
notes: also called AVR5e-immobilized gel; AVR5e column
B1: binds.
